The test addresses T1, human urotensin II receptor (hUT), stably expressed in HEK 293 cells (human) (UniProt Q9UKP6).
T1 sequence: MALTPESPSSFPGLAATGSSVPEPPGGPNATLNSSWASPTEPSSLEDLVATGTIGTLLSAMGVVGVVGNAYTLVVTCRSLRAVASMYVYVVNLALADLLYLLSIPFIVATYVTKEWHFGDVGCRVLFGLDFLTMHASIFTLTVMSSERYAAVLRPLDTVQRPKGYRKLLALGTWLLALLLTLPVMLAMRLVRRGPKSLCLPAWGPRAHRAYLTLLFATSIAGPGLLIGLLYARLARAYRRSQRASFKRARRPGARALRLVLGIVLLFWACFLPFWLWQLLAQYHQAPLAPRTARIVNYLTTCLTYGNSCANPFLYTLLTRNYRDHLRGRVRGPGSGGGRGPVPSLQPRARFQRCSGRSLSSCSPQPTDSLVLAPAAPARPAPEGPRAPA

In turn, human urotensin II (ligand) gave an Emax of β-arrestin 2 conformational change (BRET biosensor), HEK 293-hUT cells of 100%.

Source of the values: doi:10.1101/2020.11.23.394270.
